{"source": "paper PMC6168351", "about": "(Molecular cancer therapeutics, 2018)", "binders": {"B1": {"name": "huA33 (humanized A33 antibody, selected clone), IgG1 (antibody, V domains shown)", "VH": "EVQLVESGGGLVKPGGSLRLSCAASGFAFSTYDMSWVRQAPGKRLEWVATISSGGSYTYYLDSVKGRFTISRDNAKNSLYLQMNSLRAEDTAVYYCAPTTVVPFAYWGQGTLVTVSS", "VL": "DIQMTQSQSSLSTSVGDRVTITCKASQNVRTVVAWYQQKPGKSPKTLIYLASNRHTGVPSRFSGSGSGTEFTLTISNVQPEDFADYFCLQHWSYPLTFGSGTKLEIK"}}, "biological_target": "Human GPA33 (Novoprotein), recombinant (Homo sapiens (Human)., UniProt Q99795)", "sequence (Q99795 22-235)": "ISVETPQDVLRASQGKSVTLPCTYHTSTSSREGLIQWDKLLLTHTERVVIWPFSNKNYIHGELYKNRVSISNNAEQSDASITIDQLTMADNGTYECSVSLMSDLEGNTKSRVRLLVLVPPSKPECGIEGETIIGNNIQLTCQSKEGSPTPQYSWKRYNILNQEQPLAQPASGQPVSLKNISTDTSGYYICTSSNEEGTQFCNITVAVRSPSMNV", "assay": "SPR", "data": [{"binder": "B1", "values": [{"measurement": "Kd", "value": 0.13, "unit": "nM"}]}]}
